Publication PMC11395145, “The Archetypal Gamma-Core Motif of Antimicrobial Cys-Rich Peptides Inhibits H^+-ATPases in Target Pathogens” (International Journal of Molecular Sciences, 2024)

Columns and labels:
[1] = system: Candida albicans ATCC 10231; experiment: Microbicidal (spread-plate cell viability) assay, candidacidal activity; assay type: cell-based
Method: (§1) First, we tested the antimicrobial activity of Kal-1 and a shorter Kal-1-derived peptide (Kdp15), both containing the complete γ-core signature of human lactoferrin, against C. albicans and P. aeruginosa. Microbicidal (cidal) activity was determined after 90 min of incubation (37 °C; pH 7.4) with a range of concentrations of each hLf-derived peptide.
(§2) Figure 1 Cell viability and membrane permeabilization assays. C. albicans or P. aeruginosa (10^6 cells/mL) were incubated (90 min, 37 °C) with each peptide/protein at the indicated concentrations. Aliquots were plated on SDA or […], and colonies were counted after 24–48 h (C. albicans) or 24 h (P. aeruginosa). At each point, samples were stained with propidium iodide (PI) and intracellular PI incorporation, indicative of membrane permeabilization, was quantified by flow cytometry. The relative cell viability (blue lines) and cellular permeabilization (red lines) were calculated as the percentage of untreated cells. Human lactoferrin (hLf) and the peptide Lfpep were used as negative and positive controls of cellular permeabilization, respectively.
Microbial susceptibility to the peptides was determined in a spread-plate assay as described previously. Briefly, two-fold serially diluted peptides were incubated (37 °C) with approximately 10^6 cells/mL in Tris buffer (10 mM Tris-HCl, pH 7.4). After 90 min of incubation with the peptides, aliquots were removed and plated in duplicate on an appropriate agar plate for each species (SDA for C. albicans, TSA for P. aeruginosa). The plates were incubated for 24–48 h at 30 °C (C. albicans) or 24 h at 37 °C (P. aeruginosa) for enumeration. The cell viability values, expressed as colony forming units (CFUs), were determined relative to incubation without added peptides and represent the mean ± standard deviation (±SD) of at least three independent determinations. For inhibition assays, the cell suspensions were preincubated (15 min at 37 °C) with the corresponding inhibitors before the addition of peptides. […]

[2] = system: Pseudomonas aeruginosa 10145 (PAO1); experiment: Microbicidal (spread-plate cell viability) assay, pseudomonacidal activity; assay type: cell-based; conditions: Tris buffer with 50 mM KCl vs without
Method: as §1
as §2, with “Human lactoferrin (hLf) and the peptide Lfpep were used as negative and positive controls of cellular permeabilization, respectively.” left out
Microbial susceptibility to the peptides was determined in a spread-plate assay as described previously. […] The cell viability values, expressed as colony forming units (CFUs), were determined relative to incubation without added peptides and represent the mean ± standard deviation (±SD) of at least three independent determinations. […]

C. albicans cells [3] = experiment: Cell membrane permeability assay (propidium iodide, flow cytometry); assay type: cell-based, Candida albicans; conditions: 90 min, 37 °C, range of concentrations, PI 9 μM
Method: (§3) To determine whether Kal-1 and Kdp15 exert a permeabilizing effect on fungal or bacterial membranes, the cellular influx of the fluorescent nucleic-acid-binding dye propidium iodide (PI) was assessed. As PI itself cannot permeate through an intact phospholipid bilayer, only permeabilized cells take up PI, resulting in DNA intercalation and fluorescence.
(§4) Flow cytometry was used to assess the ability of peptides to permeabilize plasma membranes of cells in incorporation of the DNA intercalating dye propidium iodide (PI). C. albicans or P. aeruginosa cells (10^6 cells/mL) in Tris buffer were incubated with two-fold serially diluted peptides for 90 min at 37 °C and subsequently reincubated with PI (9 μM, final concentration) for 5 min. The suspensions were centrifuged at 1100× g for 10 min and subsequently washed with Tris buffer to remove any unbound PI. The peptide Lfpep was used to disrupt the cytoplasmic membrane (positive control). Cell fluorescence was monitored using a Cytomics FC500 Flow Cytometer (Beckman Coulter Life Sciences, Indianapolis, IN, USA). The PI fluorescence was excited at a wavelength of 488 nm and emission was registered at 610 nm. For each treatment, 20,000 events were measured. Data were acquired and analyzed using CytExpert 2.1 software. Results were expressed as the percentage of PI-positive cells with respect to the unstained cells (control). […]

P. aeruginosa cells [4] = experiment: as above; assay type: cell-based, Pseudomonas aeruginosa; conditions: 90 min, 37 °C, range of concentrations, PI 9 μM
Method: as §3, §4

C. albicans cells [5] = experiment: Oxygen consumption measurement (Clark-type electrode); assay type: cell-based, Candida albicans; conditions: 5 × 10^6 cells/mL, peptides at IC50, piericidin A 32 μM, at least 30 min, 25 °C
Method: (§5) Figure 3 Effect of cellular respiration on the microbicidal activity of hLf γ-core-containing peptides. (A,C) Oxygen consumption was measured in C. albicans and P. aeruginosa cellular suspensions in the absence (control) or the presence of kaliocin-1 (Kal-1), Kdp15, or human lactoferrin (hLf), and piericidin A (positive control). (B,D) Effect of cellular respiration on the microbicidal activity of hLf γ-core-containing peptides. Cells (10^6 cells/mL) were pre-incubated (15 min, 37 °C) with 32 μM piericidin A and incubated for 90 min at 37 °C with the peptides hLf or BM2. The cell viability was determined by means of the plate counting method. The results are the mean ± SD from duplicates of at least three independent experiments. * p < 0.05, ** p < 0.01, and *** p < 0.001 were used.
(§6) C. albicans or P. aeruginosa cells were grown to the mid-logarithmic phase, washed twice in Tris buffer, and resuspended in the same buffer, as described in [9, 10]. Briefly, cells (5 × 10^6 cells/mL) were pre-incubated for 15 min at 37 °C with the peptides (IC50). […] Oxygen consumption was measured using a Clark-type oxygen electrode (Dual digital-model 20, Rank Brothers Ltd., Cambridge, UK) in a closed jacketed chamber maintained at 25 °C. […] The viability of the cells was determined at 30 min by removing aliquots from the oxygen chambers and plating the subsequent dilutions on SDA or TSA plates.

P. aeruginosa cells [6] = experiment: as above; assay type: cell-based, Pseudomonas aeruginosa; conditions: 5 × 10^6 cells/mL, peptides at IC50, piericidin A 32 μM, at least 30 min, 25 °C
Method: as §5, §6

C. albicans cells [7] = experiment: Measurement of intracellular ATP (BacTiter-Glo); assay type: cell-based, Candida albicans; conditions: C. albicans 10^6 cells/mL, candidacidal concentration, 90 min, 37 °C; BM2 0.25 μM
Method: Total ATP was measured by using the BacTiter-Glo^TM Microbial Cell Viability Assay (Promega Co., Madison, WI, USA) according to the manufacturer’s instructions. […] Aliquots (100 μL) were incubated (90 min at 37 °C) with kaliocin-1, Kdp15, or human lactoferrin and the BM2 peptide (positive control). One hundred microliters of incubation mix was transferred into a 96-well opaque white plate, mixed with an equal volume of the BacTiter-Glo reagent, and incubated for 15 min in the dark. The reagent used a thermostable luciferase to produce luminescence in an ATP-dependent manner. The emitted luminescence was detected by using a Varioskan Flash multimode reader (Thermo Scientific, Waltham, MA, USA) with a 10 s of shaking and 1 s integration time. A calibration curve was prepared for each experiment, with ATP standards ranging from 1 to 1000 nM. For assays performed in the presence of the BM2 peptide, samples were preincubated with 0.25 μM BM2 for 30 min at 37 °C. All the tests were performed in triplicate at least four times.

[8] = system: Candida albicans ATCC 10231; conditions: used in control assays; cited from earlier work
Method: as §1, with “peptide. The hLf γ-core-containing peptides were microbicidal in a concentration-dependent way (Figure 1). […] The IC50 es ...” for “peptide.”

[9] = system: Pseudomonas aeruginosa 10145 (PAO1); conditions: used in control assays; cited from earlier work
Method: as §1, with “peptide. The hLf γ-core-containing peptides were microbicidal in a concentration-dependent way (Figure 1). […] The IC50 es ...” for “peptide.”

B1: hLf: Recombinant human apo-lactoferrin, PM H^+-ATPase inhibitor control (protein, UniProt P02788 20-710, looked up)
Lactotransferrin: GRRRSVQWCAVSQPEATKCFQWQRNMRKVRGPPVSCIKRDSPIQCIQAIAENRADAVTLDGGFIYEAGLAPYKLRPVAAEVYGTERQPRTHYYAVAVVKKGGSFQLNELQGLKSCHTGLRRTAGWNVPIGTLRPFLNWTGPPEPIEAAVARFFSASCVPGADKGQFPNLCRLCAGTGENKCAFSSQEPYFSYSGAFKCLRDGAGDVAFIRESTVFEDLSDEAERDEYELLCPDNTRKPVDKFKDCHLARVPSHAVVARSVNGKEDAIWNLLRQAQEKFGKDKSPKFQLFGSPSGQKDLLFKDSAIGFSRVPPRIDSGLYLGSGYFTAIQNLRKSEEEVAARRARVVWCAVGEQELRKCNQWSGLSEGSVTCSSASTTEDCIALVLKGEADAMSLDGGYVYTAGKCGLVPVLAENYKSQQSSDPDPNCVDRPVEGYLAVAVVRRSDTSLTWNSVKGKKSCHTAVDRTAGWNIPMGLLFNQTGSCKFDEYFSQSCAPGSDPRSNLCALCIGDEQGENKCVPNSNERYYGYTGAFRCLAENAGDVAFVKDVTVLQNTDGNNNEAWAKDLKLADFALLCLDGKRKPVTEARSCHLAMAPNHAVVSRMDKVERLKQVLLHQQAKFGRNGSDCPDKFCLFQSETKNLLFNDNTECLARLHGKTTYEKYLGPQYVAGITNLKKCSTSPLLEACEFLRK
modifications: apo form
[1]; 90 min, 37 °C, 10 mM Tris-HCl pH 7.4, 10^6 cells/mL, CFU plating, estimated, read-out: IC50 (concentration that caused 50% reduction in viable counts) against C. albicans
  IC50: 3000 nM
[1]; Tris buffer with 50 mM KCl vs without
  effect of high external K^+ on candidacidal activity: seemed to protect
[1]; cells pre-incubated 15 min with 10 mM TEA^+
  effect of Tok1p K^+ channel block (TEA^+) on candidacidal activity: less susceptible
[2]
  effect of high external K^+ on pseudomonacidal activity: seemed to protect
C. albicans cells [3]
  PI fluorescent cells (plasma membrane permeabilization), C. albicans: not significantly increased
P. aeruginosa cells [4]
  PI fluorescent cells (plasma membrane permeabilization), P. aeruginosa: not significantly increased
C. albicans cells [5]
  oxygen consumption of C. albicans in presence of the substance: inability of the native protein hLf to inhibit
P. aeruginosa cells [6]
  oxygen consumption of P. aeruginosa in presence of the substance: inability of the native protein hLf to inhibit
C. albicans cells [7]
  increment in intracellular ATP (iATP) level compared to untreated control: ~ 6 fold
[8]
  previously reported microbicidal concentration against C. albicans: 5 µM
[9]
  previously reported microbicidal concentration against P. aeruginosa: 1 µM
